The results in this text go back to patent US20260029420A1, “ANTI-CB2 ANTIBODIES AND THEIR USE IN A FLOW CYTOMETRY ASSAY TO MEASURE CELL SURFACE CB2 EXPRESSION” (Hoffmann-La Roche Inc., priority 2022, published 2026).

The test system of test [1] is pANITA3.1 ratGIPR (DB388). Nature of the test: Immunoprecipitation from whole cell lysates. The class given is binding, rat. Details: key to Immunoprecipitation signal intensity: “−” no signal; “+”-“+++++” signal intensity; “+”-“+++++” signal intensity; “+”-“+++++” signal intensity; “+”-“+++++” signal intensity; “+”-“+++++” signal intensity. On the procedure: (§1) The positive clones (Table 1) were further characterized by immunofluorescence (IF; Table 2), Western Blot (Table 3, 1) and Immune precipitation (Table 4, 2) on full length hCB2, hCB1, mCB2 stable-transfected CHO-cell lines in addition to the 2 pANITA constructs.
(§2) For immunoprecipitation (IP), whole cell lysates were incubated with the respective antibodies. IP was performed according to established protocols and subsequent western blot as described herein above.

The subject of test [2] is CHODukx negative. Nature of the test: Western blot of cell lysates, negative control. To be noted: CHODukx negative lysate. Details: key: “−” no signal; “+”-“+++++” signal intensity; “+”-“+++++” signal intensity; “+”-“+++++” signal intensity; “+”-“+++++” signal intensity; “+”-“+++++” signal intensity. The class given is binding. On the procedure: as §1
For Western blot analysis, cells were collected using enzyme free dissociation buffer (Cell dissociation buffer enzyme-free Hanks'-based, Gibco), and washed two times with PBS. To prepare cell lysate, 10^6 cells were lysed with 0.1 ml of lysis buffer (1% NP40, 10% glycerol, 2 mM EDTA, 137 mM NaCl, 20 mM TrisHCl, pH8, Protease Inhibitors) for 10 min on ice. The lysate was cleared by centrifugation at 20′000 g for 5 min. For SDS-PAGE cell lysate was resolved on precast 4-12% gradient gels (NuPAGE® Novex 4-12% Bis-Tris Gel, Invitrogen) with MES running buffer according to the manufacturer's directions. The separation of proteins was visualized by Colloidal Blue staining. The proteins were electrophoretically transferred to nitrocellulose membrane using a dry-blotting system (iBlot, Invitrogen). After blocking the membrane for 16 h in blocking buffer (5% Milk in PBS) at 4° C., specific proteins were detected with appropriate dilutions of mAbs in blocking buffer for 1 h at approximately 20° C. […]

Test [3] concerns CHODukx negative. Nature of the test: Immunoprecipitation from whole cell lysates, negative control. More on the design: key: “−” no signal; “+”-“+++++” signal intensity; “+”-“+++++” signal intensity; “+”-“+++++” signal intensity; “+”-“+++++” signal intensity; “+”-“+++++” signal intensity. To be noted: CHODukx negative lysate. Type of test: binding. On the procedure: as §1, §2
The target of a further test is T1, CHODukx CRE hCB1 Cl.20 (Homo sapiens, UniProt P21554).
T1 construct: expressed in transfected cells
Nature of the test: Immunoprecipitation from whole cell lysates. The class given is binding. More on the design: key: “−” no signal; “+”-“+++++” signal intensity; “+”-“+++++” signal intensity; “+”-“+++++” signal intensity; “+”-“+++++” signal intensity; “+”-“+++++” signal intensity. To be noted: CHODukx CRE hCB1 Cl.20 lysate. Here is the method:
as §1, §2

The target of a further test is T2, CHO-A2 mCB2 (Mus musculus, UniProt P47936).
T2 construct: expressed in transfected cells
Nature of the test: Immunoprecipitation from whole cell lysates. Type of test: binding. Details: key: “−” no signal; “+”-“+++++” signal intensity; “+”-“+++++” signal intensity; “+”-“+++++” signal intensity; “+”-“+++++” signal intensity; “+”-“+++++” signal intensity. To be noted: CHO-A2 mCB2 lysate. On the procedure:
as §1, §2

The subject of the next test is CHO-DUKX parental cells. Nature of the test: Flow cytometry on CHO-DUKX cells. Type of test: binding. The text has this:
(§3) FIG. 4: Flow cytometric analysis of hCB2 antibody 1/622 in CHO-DUKX parental and CHO-DUKX_HOMSA_CNR2_Clone_90_CRE-Luc cells transfected with hCB2. For detection an F(ab)2 goat-anti Mouse IgG3 PE antibody was used. The anti-human CB2 antibody 1/622 detects the CB2 in the CHO cells transfected with hCB2 with a signal to background ratio of 10, the CHO-DUKX parental cells are negative.

The target in test [4] is T3, CHO-DUKX_HOMSA_CNR2_Clone_90_CRE-Luc cells transfected with hCB2 (Homo sapiens, UniProt P34972).
T3 construct: expressed in transfected cells
Nature of the test: Flow cytometry on CHO-DUKX cells. The class given is binding. To be noted: transfected vs parental untransfected CHO cells.
Excerpt: as §3

In the next test the target is T4, CHODukx CRE hCB2 Cl.90 (Homo sapiens, UniProt P34972).
T4 construct: expressed in transfected cells
Nature of the test: Immunoprecipitation from whole cell lysates. Type of test: binding. More on the design: key: “−” no signal; “+”-“++++” signal intensity; “+”-“++++” signal intensity; “+”-“++++” signal intensity; “+”-“++++” signal intensity. To be noted: CHODukx CRE hCB2 Cl.90 lysate. Here is the method: as §1, §2

T2 sequence (P47936 whole entry): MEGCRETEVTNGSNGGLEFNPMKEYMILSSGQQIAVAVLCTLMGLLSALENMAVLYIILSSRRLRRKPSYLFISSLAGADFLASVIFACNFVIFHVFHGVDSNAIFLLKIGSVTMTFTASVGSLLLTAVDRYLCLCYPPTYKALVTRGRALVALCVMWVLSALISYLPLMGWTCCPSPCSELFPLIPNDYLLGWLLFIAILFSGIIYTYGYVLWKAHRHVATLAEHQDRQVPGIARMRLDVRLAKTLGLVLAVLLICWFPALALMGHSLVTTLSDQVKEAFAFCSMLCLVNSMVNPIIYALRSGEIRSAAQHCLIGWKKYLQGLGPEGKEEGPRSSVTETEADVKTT
T4 sequence (P34972 whole entry): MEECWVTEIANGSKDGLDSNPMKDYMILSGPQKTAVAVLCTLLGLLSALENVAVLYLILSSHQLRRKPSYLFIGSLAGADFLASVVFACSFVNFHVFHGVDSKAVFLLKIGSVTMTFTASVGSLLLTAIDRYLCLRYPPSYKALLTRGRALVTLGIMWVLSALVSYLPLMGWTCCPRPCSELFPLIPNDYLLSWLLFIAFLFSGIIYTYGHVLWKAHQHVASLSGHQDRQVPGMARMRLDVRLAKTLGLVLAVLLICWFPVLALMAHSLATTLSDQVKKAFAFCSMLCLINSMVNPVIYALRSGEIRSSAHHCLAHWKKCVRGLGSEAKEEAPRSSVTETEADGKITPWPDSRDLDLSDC
T3 sequence (P34972 whole entry): as above
T1 sequence (P21554 whole entry): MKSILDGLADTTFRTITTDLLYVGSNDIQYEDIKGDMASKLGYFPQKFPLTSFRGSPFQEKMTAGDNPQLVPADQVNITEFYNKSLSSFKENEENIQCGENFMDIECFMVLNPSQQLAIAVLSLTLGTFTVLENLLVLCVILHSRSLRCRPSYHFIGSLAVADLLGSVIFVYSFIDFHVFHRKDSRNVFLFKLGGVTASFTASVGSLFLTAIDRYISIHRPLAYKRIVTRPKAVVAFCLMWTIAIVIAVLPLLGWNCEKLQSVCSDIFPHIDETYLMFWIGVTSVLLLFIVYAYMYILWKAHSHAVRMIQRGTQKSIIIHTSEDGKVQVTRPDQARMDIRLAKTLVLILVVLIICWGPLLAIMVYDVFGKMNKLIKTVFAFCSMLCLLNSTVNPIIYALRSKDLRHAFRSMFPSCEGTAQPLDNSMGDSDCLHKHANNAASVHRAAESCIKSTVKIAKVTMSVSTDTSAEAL

B1: hCB2-1/622: murine IgG3 monoclonal anti-human CB2 antibody, VH SEQ ID NO: 1, VL SEQ ID NO: 2, HC SEQ ID NO: 3, LC SEQ ID NO: 4 (antibody)
heavy: EVQLQQSGPELVKPGASVKISCKTSGYTFTEYTMHWVRQSHGKSLEWIGGIDRYNGDTYYNQKFKDKATLTVDRSSSTAYMELRSLTSEDSAVYFCARNGAMDYWGQGISVTVSSATTTAPSVYPLVPGCSDTSGSSVTLGCLVKGYFPEPVTVKWNYGALSSGVRTVSSVLQSGFYSLSSLVTVPSSTWPSQTVICNVAHPASKTELIKRIEPRIPKPSTPPGSSCPPGNILGGPSVFIFPPKPKDALMISLTPKVTCVVVDVSEDDPDVHVSWFVDNKEVHTAWTQPREAQYNSTFRVVSALPIQHQDWMRGKEFKCKVNNKALPAPIERTISKPKGRAQTPQVYTIPPPREQMSKKKVSLTCLVTNFFSEAISVEWERNGELEQDYKNTPPILDSDGTYFLYSKLTVDTDSWLQGEIFTCSVVHEALHNHHTQKNLSRSPGK
light: DVVMTQTPLSLPVSLGDQASISCRSSQSLVHSNGNTYLHWFLQKPGQSPKLLIYKVSIRFSGVPDRFSGSGSGTDFTLKISRVEAEDLGVYFCSQSTHVPPLTFGAGTKLELKRADAAPTVSIFPPSSEQLTSGGASVVCFLNNFYPKDINVKWKIDGSERQNGVLNSWTDQDSKDSTYSMSSTLTLTKDEYERHNSYTCEATHKTSTSPIVKSFNRNEC
Take B1: the Immunoprecipitation signal intensity entry in test [1] (pANITA3.1 ratGIPR (DB388) lysate) was “−”; with CHODukx negative [3], “−”; with CHODukx CRE hCB1 Cl.20, “−”; with CHO-A2 mCB2, “−”; with CHODukx CRE hCB2 Cl.90, “+”. In test [1] (rat GIPR), the “immunoprecipitation cross reactivity” value was “no cross reactivity”. Also, the “Western Blot signal intensity” value in the test on CHODukx negative [2] was “−”. In addition, in the test with CHO-DUKX parental cells, the “flow cytometric detection of CB2” value was “negative”. In addition, the “signal to noise ratio for detection of human CB2” value in test [4] was “good signal to noise ratio”.
